Where no end group is shown, it is not given here.
Assays:
HCV core peptide 48 = target: T1, HCV core peptide 48 (hepatitis C virus, HELM PEPTIDE1{[O=C1N[C@H]2[C@H](CS[C@H]2CCCCC(=O)[*:2])N1].S.G.S.G.G.W.L.L.S.P.R.G.S.R.P.S.W.G.P.[am]}$$$$V2.0; SMILES …); test: peptide EIA
T1 construct: also called aa 95-109
T1 peptide: SGSGGWLLSPRGSRPSWGP

HCV core peptide 49 = target: T2, HCV core peptide 49 (hepatitis C virus, HELM PEPTIDE1{[O=C1N[C@H]2[C@H](CS[C@H]2CCCCC(=O)[*:2])N1].S.G.S.G.L.L.S.P.R.G.S.R.P.S.W.G.P.T.D.[am]}$$$$V2.0; SMILES …); test: peptide EIA
T2 peptide: SGSGLLSPRGSRPSWGPTD

[1] = target: T3, Mut1T110N biotin labeled HCV core peptide (hepatitis C virus, biotin labeled (position not given)); test: capture EIA; Ab 250 ng/mL; bt-peptide 500 ng/mL
T3 peptide: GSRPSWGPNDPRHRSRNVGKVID

[2] = target: T4, Mut6T110S biotin labeled HCV core peptide (hepatitis C virus, biotin labeled (position not given)); test: capture EIA; Ab 250 ng/mL; bt-peptide 500 ng/mL
[3] = target: T5, C113WT biotin labeled HCV core peptide (hepatitis C virus, also: biotin labeled, position not given here); test: capture EIA; Ab 250 ng/mL; bt-peptide 500 ng/mL
T5 peptide: RGSRPSWGPTD

[4] = target: T6, C113T109N biotin labeled HCV core peptide (hepatitis C virus, also: biotin labeled, position not given here); test: capture EIA; Ab 250 ng/mL; bt-peptide 500 ng/mL
T6 construct: also called C113T110N
T6 peptide: RGSRPSWGPND

[5] = target: T7, 92-133 biotin labeled HCV core peptide (hepatitis C virus, UniProt Q9WMX2 92-133, chain 1: biotin label (bt-pep). Its position and any spacer are not visible in the passages shown.); test: capture EIA; Ab 250 ng/mL; bt-peptide 500 ng/mL
T7 construct: Only the label 92-133 is printed
T7 peptide: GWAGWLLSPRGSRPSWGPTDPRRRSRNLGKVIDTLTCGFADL
Experimental: (§1) Assay wells were coated with sheep anti-mouse IgG Fc specific antibody and incubated overnight. The coating solution was then removed; the wells blocked using BSA/tween in PBS and then washed with dH2O. […] Next, biotin labeled peptides (diluted to 500 ng/mL in block) were added, the plates incubated for 10 minutes while shaking at 700 rpm and then washed. Peroxidase conjugated streptavidin (diluted to 200 ng/mL in block) was then added to all assay wells, incubated for 20 minutes while shaking at 700 rpm and then washed. Finally, color was developed using OPD and signal quenched using 1N H₂SO₄. Signal was read at 492 nm.

[6] = target: T8, WT1STHV biotin labeled HCV core peptide (hepatitis C virus, biotin labeled (position not given)); test: capture EIA; Ab 250 ng/mL; bt-peptide 500 ng/mL
T8 peptide: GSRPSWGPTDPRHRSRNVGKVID

[7] = target: T3, Mut1T110N biotin labeled HCV core …; test: capture EIA; Ab 1.953 ng/mL; bt-peptide 500 ng/mL
Experimental: as §1

[8] = target: T4, Mut6T110S biotin labeled HCV core …; test: capture EIA; Ab 1.953 ng/mL; bt-peptide 500 ng/mL
Experimental: as §1

[9] = target: T5, C113WT biotin labeled HCV core peptide; test: capture EIA; Ab 1.953 ng/mL; bt-peptide 500 ng/mL
Experimental: as §1

[10] = target: T7, 92-133 biotin labeled HCV core peptide; test: capture EIA; Ab 1.953 ng/mL; bt-peptide 500 ng/mL
Experimental: as §1

[11] = target: T8, WT1STHV biotin labeled HCV core peptide; test: capture EIA; Ab 1.953 ng/mL; bt-peptide 500 ng/mL
Experimental: as §1

[12] = target: T3, Mut1T110N biotin labeled HCV core …; test: capture EIA; Ab 7.813 ng/mL; bt-peptide 500 ng/mL
Experimental: as §1

[13] = target: T4, Mut6T110S biotin labeled HCV core …; test: capture EIA; Ab 7.813 ng/mL; bt-peptide 500 ng/mL
Experimental: as §1

[14] = target: T5, C113WT biotin labeled HCV core peptide; test: capture EIA; Ab 7.813 ng/mL; bt-peptide 500 ng/mL
Experimental: as §1

[15] = target: T6, C113T109N biotin labeled HCV core …; test: capture EIA; Ab 7.813 ng/mL; bt-peptide 500 ng/mL
Experimental: as §1

[16] = target: T7, 92-133 biotin labeled HCV core peptide; test: capture EIA; Ab 7.813 ng/mL; bt-peptide 500 ng/mL
Experimental: as §1

[17] = target: T8, WT1STHV biotin labeled HCV core peptide; test: capture EIA; Ab 7.813 ng/mL; bt-peptide 500 ng/mL
Experimental: as §1

[18] = target: T3, Mut1T110N biotin labeled HCV core …; test: capture EIA; Ab 15.625 ng/mL; bt-peptide 500 ng/mL
Experimental: as §1

[19] = target: T4, Mut6T110S biotin labeled HCV core …; test: capture EIA; Ab 15.625 ng/mL; bt-peptide 500 ng/mL
Experimental: as §1

[20] = target: T5, C113WT biotin labeled HCV core peptide; test: capture EIA; Ab 15.625 ng/mL; bt-peptide 500 ng/mL
Experimental: as §1

[21] = target: T6, C113T109N biotin labeled HCV core …; test: capture EIA; Ab 15.625 ng/mL; bt-peptide 500 ng/mL
Experimental: as §1

[22] = target: T7, 92-133 biotin labeled HCV core peptide; test: capture EIA; Ab 15.625 ng/mL; bt-peptide 500 ng/mL
Experimental: as §1

[23] = target: T8, WT1STHV biotin labeled HCV core peptide; test: capture EIA; Ab 15.625 ng/mL; bt-peptide 500 ng/mL
Experimental: as §1

B1: Neo4 mouse monoclonal antibody (antibody, V domains shown)
VH: QIQLKESGPAVIKPSQSLSLTCIVSGFSITSSVYCWQWIRQPPGKGLEWMGRICYDGSVDYSPSITSRGTISRDTSLNKVFFQLSSVTNEDTAMYYCSRENHIDYYDTTYPSFDVWGAGTTVTVSS
VL: DIVLTQSPASLIVSLGQRATISCRASKSVNEYGYTYMHWYQQKPGLPPKLLIYLASNLDSGVPARFSGSGSGTDFTLNIHPVEEEDAATYYCQHSRELPYTFGGGTKLEIKR
notes: Mouse hybridoma antibody, isotype IgG1, purified with Protein G; also called HCV Neo4
binding result (HCV core peptide 48): no binding | binding result (HCV core peptide 49): no binding | signal at 492 nm [1]: 0.089 A492 | signal at 492 nm [2]: 1.15 A492 | signal at 492 nm [3]: 0.0607 A492 | signal at 492 nm [4]: 0.111 A492 | signal at 492 nm [5]: 1.4 A492 | signal at 492 nm [6]: 1.99 A492 | signal at 492 nm [7]: 0.0728 A492 | signal at 492 nm [8]: 0.0717 A492 | signal at 492 nm [9]: 0.0765 A492 | signal at 492 nm [10]: 0.129 A492 | signal at 492 nm [11]: 0.409 A492 | signal at 492 nm [12]: 0.0729 A492 | signal at 492 nm [13]: 0.132 A492 | signal at 492 nm [14]: 0.0731 A492 | signal at 492 nm [15]: 0.0751 A492 | signal at 492 nm [16]: 0.45 A492 | signal at 492 nm [17]: 1.04 A492 | signal at 492 nm [18]: 0.0771 A492 | signal at 492 nm [19]: 0.25 A492 | signal at 492 nm [20]: 0.0697 A492 | signal at 492 nm [21]: 0.0736 A492 | signal at 492 nm [22]: 0.806 A492 | signal at 492 nm [23]: 1.42 A492

Source: patent publication US20190170753A1 (ICAHN SCHOOL OF MEDICINE AT MOUNT SINAI, published 2019)
